The labels stand for the following.
B1: m42.127 Fab / Biotinylated junctional peptide Pep21 (PfCSP peptide 21) [modified: biotin (position not stated); biotin (position not stated)] [Plasmodium falciparum (clone 3D7)] (parent complex)
chain 1: QVQLVQSGAEVKKPGASVKVSCKASGYTFTSYAIHWVRQAPGQRLEWMGWIKAGNGNTRYSQKFQDRVTITRDTSASTAYMELSSLRSEDTAVYYCALLTVITPDDTFDIWGQGTMVTVSSASTKGPSVFPLAPSSKSTSGGTAALGCLVKDYFPEPVTVSWNSGALTSGVHTFPAVLQSSGLYSLSSVVTVPSSSLGTQTYICNVNHKPSNTKVDKKVEPKSCDKGLEVLFQ
chain 2: not shown
chain 3: NPDPNANPNVDPNAN

Variants of B1 are the subject of the test. Put plainly: BLI; read off a plot. (In general: Biolayer interferometry detects binding as a change in optical thickness at a sensor tip.)
On to chain 1 T103R, chain 1 P104R, for which the Kd (as a rule, the concentration at which binding is half-saturated) is roughly 15 nM.
For chain 1 T103R, chain 1 P104Q, the Kd is roughly 18 nM.
chain 1 P104Q: the Kd was roughly 20 nM.
As to chain 1 P104M, the Kd is roughly 22 nM.
For chain 1 T100M, the Kd is roughly 24 nM.
The result for chain 1 T103K reads roughly 15 nM; that for chain 1 Y32K, roughly 18 nM.

The values above are taken from publication PMC12269619 (2025).
